In US11236367B2, “Fatty acid decarboxylase and its uses” (COMMISSARIAT A L'ENERGIE ATOMIQUE ET AUX ENERGIES …, priority 2016, dated 2022):

Legend:
E. coli cells [1] = assay: Hydrocarbon content of E. coli cells expressing algal GMC oxidoreductase; type: cell-based, Escherichia coli; settings: no fatty acid substrate added; absent with empty vector
Source text: Chlamydomonas reinhardtii and Phaeodactylum tricornutum Alkane synthase was amplified from a synthetic gene codon-optimized for E. coli using for Chlamydomonas reinhardtii a primer forward 5′-[…]-3′ (SEQ ID No 29) and a primer reverse, 5′-[…]-3′ (SEQ ID No 30). For Phaeodactylum tricornutum, forward primer 5′-[…]-3′ (SEQ ID No 31), reverse primer 5′-[…]-3′ (SEQ ID No 32). Genes were cloned into pLIC07 vector, which introduced downstream of the ATG start codon a cassette coding for a 6 His-tagged thioredoxin and a tobacco etch virus (TEV) protease-cleavage site. E. coli strain expressing the GMC oxidase from Chlorella variabilis NC64A, Chlamydomonas reinhardtii or Phaeodactylum triconutum were grown at 37° C. with agitation at 180 rpm and light at 100 μmole.photon.m^−2·s^−1. When OD reached 0.6, 500 μM of isopropyl β-D-1-thiogalactopyranoside was added. Cells were then grown for 24 hours at 37° C., harvested, transmethylated using methanol added with 5% sulfuric acid and hydrocarbons were extracted with hexane and analyzed by GC-MS as previously described.

E. coli cells [2] = assay: Co-expression in E. coli of a GMC oxidoreductase and a lipase; type: cell-based, Escherichia coli; settings: compared to E. coli strains expressing the GMC oxidoreductases alone
Method: E. coli strain transformed with a vector expressing the GMC oxidase from Chlorella variabilis NC64A (or Chlamydomonas reinhardtii) and/or a vector expressing the lipase from the bacterium Staphylococcus hyicus, were grown in TB medium at 37° C. Expression was induced with 1 mM of isopropyl β-D-1-thiogalactopyranoside (added with 0.2% arabinose for co-expression). Cells were then grown overnight at 25° C. at 100 μmole.photon.m^−2·s^−1 and 6 h at 2000 μmole.photon.m^−2·s^−1. Cells were harvested (4 ml at OD=5), transmethylated using methanol added with 5% sulfuric acid and hydrocarbons were analyzed by SPME and GC-MS as previously described.

Chlamydomonas strain = assay: Hydrocarbons in Chlamydomonas strain with chloroplast genome transformed with the Chlorella enzyme cDNA; type: cell-based, Chlamydomonas reinhardtii; settings: chloroplastic genome transformed with cDNA of the enzyme
Method: Chlamydomonas reinhardtii CC124 (nit1 nit2; mt−) and Chlamydomonas reinhardtii overexpressing the alkane synthase gene were cultured in minimal medium (Harris, 1989) in one liter photobioreactors (BIOSTAT Aplus, Sartorius Stedim Biotech) operated as turbidostats. A880 was measured continuously using a biomass probe (Excellprobe, Exner) and cultures were maintained at constant A880 by injection of fresh medium. The pH was maintained at a constant value of 7 by injection of KOH (0.2 N) or HCl (0.2 N). The cultures were stirred using a metal propeller (250 rpm). The gas flow rate was adjusted to 0.5 L min^−1. Air enriched with 2% (v/v) CO2 was generated using mass flow meters (EL flow, Bronkhorst). White light was supplied by eight fluorescent tubes (Osram Dulux L 18 W) placed radially around the photobioreactor. We used a blue filter (363 special medium blue, Lee filters, USA) and a red filter (113 magenta, Lee filters, USA) to provide respectively blue and red light. Both lights were at same intensity (35 μmol photons m^−2s^−1).
To quantify hydrocarbons together with fatty acids, transmethylation of whole cells was used. […]

[3] = target: T1, Chlorella GMC oxidoreductase (Chlorella variabilis, UniProt A0A248QE08); assay: 13CO2 release from 1-13C-palmitate with the purified enzyme (membrane inlet mass spectrometry); type: biochemical, Chlorella variabilis NC64A; settings: CO2 production monitored, light on/off
T1 construct: 6 His-tagged thioredoxin (N, cleaved yes); TEV protease-cleavage site (N, cleaved yes); made in house; host or cells: E. coli BL21-CodonPlus (DE3)-RIL
Method: All assays were performed in transparent glass vials sealed using caps with septum. Optimum pH was determined using a Teorell Stenhagen universal buffer (33 mM citric acid monohydrate, 33 mM phosphoric acid, 100 mM NaOH, 16.7 mM of boric acid, pH 8.5 adjusted with 1N HCl). Other assays were performed in 100 mM Tris HCl pH 8.5, 100 mM NaCl. Reaction mixtures (500 μL) typically contained 160 nM purified enzyme (stock ? solution 2.5 mg ml^−1) and 400 μM substrate (stock solution 10 mM in ethanol). In some assays, a lipase was used with the alkane synthase. In this case, substrate was a triacylglycerol. Generally, samples were shaken at 200 rpm during 15 min under LED-made white light at 2000 μmol ? photons m^−2s^−1. After the incubations, samples were heated at 95° C. during 15 min to stop the enzymatic reaction. Samples were cooled down and internal standard (hexadecane) was added (45 nmol from a 4.5 mM stock solution in chloroform). NaOH was then added to the reaction mixture (10 μL from a stock solution of 10 M) and samples were vortexed for 5 min. […] The hexane phase was collected by centrifugation and analyzed by GC-MS-FID. […] In FIG. 11 activity on 1-^13C-palmitate was monitored by release of ^13CO2 using membrane inlet mass spectrometry. […]
Online measurements of ^12CO2 (m/z=44) and ^13CO2 (m/z=45) were monitored using mass spectrometry (model Prima B, Thermo Scientific). […]

[4] = target: T1, Chlorella GMC oxidoreductase; assay: Enzymatic assay with purified recombinant enzyme (GC-MS of products); type: biochemical, Chlorella variabilis NC64A; settings: for fatty acid substrate range of the enzyme: purified recombinant enzyme, white light
Method: All assays were performed in transparent glass vials sealed using caps with septum. Optimum pH was determined using a Teorell Stenhagen universal buffer (33 mM citric acid monohydrate, 33 mM phosphoric acid, 100 mM NaOH, 16.7 mM of boric acid, pH 8.5 adjusted with 1N HCl). Other assays were performed in 100 mM Tris HCl pH 8.5, 100 mM NaCl. Reaction mixtures (500 μL) typically contained 160 nM purified enzyme (stock ? solution 2.5 mg ml^−1) and 400 μM substrate (stock solution 10 mM in ethanol). In some assays, a lipase was used with the alkane synthase. In this case, substrate was a triacylglycerol. Generally, samples were shaken at 200 rpm during 15 min under LED-made white light at 2000 μmol ? photons m^−2s^−1. After the incubations, samples were heated at 95° C. during 15 min to stop the enzymatic reaction. Samples were cooled down and internal standard (hexadecane) was added (45 nmol from a 4.5 mM stock solution in chloroform). NaOH was then added to the reaction mixture (10 μL from a stock solution of 10 M) and samples were vortexed for 5 min. Then 250 μL of hexane was added and samples were vortexed for 5 min to extract alkanes and alkenes. The hexane phase was collected by centrifugation and analyzed by GC-MS-FID. The analysis was done by direct injection of 100 μl of the headspace into a GC-MS. In FIG. 11 activity on 1-^13C-palmitate was monitored by release of ^13CO2 using membrane inlet mass spectrometry. Illuminations were provided by CBT-120 LEDs (Luminous, Billerica) either blue (peak at 460 nm, 25 nm FWHM), or red (peak at 635 nm, 15 nm FWHM) at an intensity of 850 μmol photons m^−2 s^−1.

B1: Phaeodactylum enzyme: GMC oxidoreductase of the diatom Phaeodactylum tricornutum expressed in Escherichia coli (protein, listed as Phaeodactylum tricornutum)
chain: YDYIICGGGLAGCVLAERLSQDESKRVLVLEAGGSDYKSLFIRIPAGVLRLFRSKYDWQHETGGEKGCNGRNVFLQRGKILGGSSCTNVCLHHRGSAEDYNSWNIPGWTATDVLPFFKQSQKDETGRDATFHGADGEWVMDEVRYQNPLSKLFLEVGEAAGLGTNDDFNNWSHPQDGVGRFQVSEVNGERCSGATAFLSKAAKRSNVIVRTGTMVRRIDFDETKTAKGITYDLMGDDTCTTFQACLKEGGEVLVTGGAIASPQLLMCSGIGPGKHLRSLGIPVVHDNSAVGENLQDHPAAVVSFKTPQKGVSVTSKLRLFGKTNPIPVFQWLFFKSGLLTSTGCDHGAFVRTSDSLEQPDLQIRFLAARALGPDGMTTYTKFRTMKTVEDGYSFQSVACRAKSKGRIRLSSSNSHVKPMIDGGYLSNQDDLATLRAGIKLGRMLGNRPEWGEYLGQEVYPGPDVQTDEEIDEYIRNSLHTANALTGTCKMGTGRGAVVGPDLRVIGVNGVRVGDSSVFPCIPGGQTATPTVMIGDRAAVFVRQPVSQLNIEIFREKGGTHPGATTASA
hydrocarbons formed in E. coli cells expressing the enzyme (E. coli cells [1]): albeit in lower amounts

B2: Chlamydomonas enzyme: GMC oxidoreductase of Chlamydomonas reinhardtii expressed in Escherichia coli (protein, listed as Chlamydomonas reinhardtii)
chain: LSVRAAAGPAGSEKFDYVLVGGGTASCVLANKLSADGNKKVLVLEAGPTGDAMEVAVPAGITRLFAHPVMDWGMSSLTQKQLVAREIYLARGRMLGGSSGSNATLYHRGSAADYDAWGLEGWSSKDVLDWFVKAECYADGPKPYHGTGGSMNTEQPRYENVLHDEFFKAAAATGLPANPDFNDWSHPQDGFGEFQVSQKKGQRADTYRTYLKPAMARGNLKVVIGARATKVNIEKGSSGARTTGVEYAMQQFGDRFTAELAPGGEVLMCSGAVHTPHLLMLSGVGPAATLKEHGIDVVSDLSGVGQNLQDHPAAVLAARAKPEFEKLSVTSEVYDDKCNIKLGAVAQYLFQRRGPLATTGCDHGAFVRTSSSLSQPDLQMRFVPGCALDPDGVKSYIVFGELKKQGRAWPGGITLQLLAIRAKSKGSIGLKAADPFINPAININYFSDPADLATLVNAVKMARKIAAQEPLKKYLQEETFPGERASSDKDLEEYIRRTVHSGNALVGTAAMGASPAAGAVVSSADLKVFGVEGLRVVDASVLPRIPGGQTGAATVMVAERAAALLRGQATIAPSRQPVAV
hydrocarbons formed in E. coli cells expressing the enzyme (E. coli cells [1]): formation in E. coli cells of pentadecane and heptadecane as well as their monounsaturated analogs
increase in most hydrocarbons on co-expression with bacterial lipase (Uniprot P04635) (E. coli cells [2]): two to three-fold increase

B3: Chlorella GMC oxidoreductase: GMC protein from Chlorella variabilis NC64A; 69 kDa FAD-dependent fatty acid decarboxylase (alkane synthase) (protein, listed as Chlorella variabilis)
chain: RASAVEDIRKVLSDSSSPVAGQKYDYILVGGGTAACVLANRLSADGSKRVLVLEAGPDNTSRDVKIPAAITRLFRSPLDWNLFSELQEQLAERQIYMARGRLLGGSSATNATLYHRGAAGDYDAWGVEGWSSEDVLSWFVQAETNADFGPGAYHGSGGPMRVENPRYTNKQLHTAFFKAAEEVGLTPNSDFNDWSHDHAGYGTFQVMQDKGTRADMYRQYLKPVLGRRNLQVLTGAAVTKVNIDQAAGKAQALGVEFSTDGPTGERLSAELAPGGEVIMCAGAVHTPFLLKHSGVGPSAELKEFGIPVVSNLAGVGQNLQDQPACLTAAPVKEKYDGIAISDHIYNEKGQIRKRAIASYLLGGRGGLTSTGCDRGAFVRTAGQALPDLQVRFVPGMALDPDGVSTYVRFAKFQSQGLKWPSGITMQLIACRPQSTGSVGLKSADPFAPPKLSPGYLTDKDGADLATLRKGIHWARDVARSSALSEYLDGELFPGSGVVSDDQIDEYIRRSIHSSNAITGTCKMGNAGDSSSVVDNQLRVHGVEGLRVVDASVVPKIPGGQTGAPVVMIAERAAALLTGKATIGASAAAPATVAA
change of hydrocarbon content in transformed Chlamydomonas strain (Chlamydomonas strain): an increase was noted in the heptadecene content, and heptadecane also appeared
dependence of enzyme activity on light [3]: stops immediately when light is turned off
hydrocarbons formed in E. coli cells expressing the enzyme (E. coli cells [1]): presence of long chain alkanes from 13 to 17 carbons
dependence of pentadecane production on light intensity [4]: increases linearly with light intensity
fatty acid substrate range of the enzyme [4]: active on a variety of saturated free fatty acids ranging from C12 to C22 carbons
fatty acid substrate range of the enzyme ([4]; listed as Chlorella alkane synthase): can use C12 to C22 fatty acids
increase in most hydrocarbons on co-expression with bacterial lipase (Uniprot P04635) (E. coli cells [2]): two to three-fold increase
